Target: T1, human CD33-his protein (human, UniProt P20138 18-259)
T1 construct: range 18-259; bought protein; also called hCD33-his; recombinant human CD33-his; not shown: His tag
Experiment: competition ELISA, coated human CD33-his, vs Biotin-C33B904 at EC80; antibody 1.95 nM
Protocol: The plate was sealed with a plastic film and incubated at 4° C. overnight, washed twice with PBS the next day, and a blocking solution [PBS+2% (w/w) BSA] was added for blocking at room temperature for 2 h. The blocking solution was discarded, and VHH-Fc antibody or negative control antibody serially diluted from 100 nM was added at 50 μL/well. After incubation at 37° C. for 2 h, the plate was washed 3 times with PBS. A secondary antibody labeled with HRP (horseradish peroxidase) (purchased from Sigma, Cat. No. A0170) was added. After incubation for 1 h at 37° C., the plate was washed 5 times with PBS. A TMB substrate was added at 50 μL/well. After incubation at room temperature for 10 min, a stop solution (1.0 N HCl) was added at 50 μL/well. The OD450 nm values were read on an ELISA plate reader (Multimode Plate Reader, EnSight, purchased from Perkin Elmer). The assay results for the binding of the VHH-Fc to hCD33-his by ELISA are shown in FIGS. 7A and 7B and Tables 11 and 12. […] The IgG control was hIgG1, and the data in the table are OD450 nm values.
ELISA plates were coated with 2 μg/mL human CD33-his protein according to the method in Example 5.1; the Biotin-C331B904 antibody was subjected to a gradient dilution from 15 μg/mL, and EC80 values (0.18 μg/mL) were calculated. […] OD_{450 nm} values were read using an ELISA plate reader (Insight, purchased from PerkinElmer). […]

T1 sequence (P20138 18-259 limits assumed): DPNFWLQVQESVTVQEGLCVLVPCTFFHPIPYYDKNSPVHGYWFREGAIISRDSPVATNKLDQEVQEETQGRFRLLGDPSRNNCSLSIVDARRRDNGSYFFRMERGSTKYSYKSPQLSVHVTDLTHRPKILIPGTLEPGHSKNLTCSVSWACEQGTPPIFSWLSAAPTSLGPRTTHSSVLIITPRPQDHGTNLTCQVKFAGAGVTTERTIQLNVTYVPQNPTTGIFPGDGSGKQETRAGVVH

- OD450 (Biotin-C33B904 signal): 2.43
B1: C33B904 (antibody, human IgG1, kappa, V domains shown)
VH: EVQLVESGGGLVQPGRSLRLSCAASGFTFDDYAMHWVRQAPGKGLEWVSGIGWSGGSIVYADSVKGRFTISRDNAKNSLYLQMNSLRAEDTALYYCAKDSPYGDFFDYWGQGTLVTVSS
VL: DIVMTQSPDSLAVSLGERATINCKSSQTVFYSSNNKNYLAWYQQKPGQPPKLLISWASTRKSGVPDRFSGSGSGTDFTLTVSSLQAEDVAVYYCQHYYSTPYTFGQGTKLEIKR
notes: control antibody, intact human IgG1 form; variable regions from US20190382481A1; also called C33B904 hIgG1; C331B904

From patent US20240124575A1 (SIMCERE ZAIMING PHARMACEUTICAL, published 2024)
